One substance from patent publication US20060166332 can be followed below.

The target in this series is Cre recombinase (Bacteriophage P1?) (UniProt P06956). The series can be described thus: cell_activity. The conditions noted are these: pCH110 control without loxP in Sure:cre.
Chain of UniProt P06956 (P06956 whole entry): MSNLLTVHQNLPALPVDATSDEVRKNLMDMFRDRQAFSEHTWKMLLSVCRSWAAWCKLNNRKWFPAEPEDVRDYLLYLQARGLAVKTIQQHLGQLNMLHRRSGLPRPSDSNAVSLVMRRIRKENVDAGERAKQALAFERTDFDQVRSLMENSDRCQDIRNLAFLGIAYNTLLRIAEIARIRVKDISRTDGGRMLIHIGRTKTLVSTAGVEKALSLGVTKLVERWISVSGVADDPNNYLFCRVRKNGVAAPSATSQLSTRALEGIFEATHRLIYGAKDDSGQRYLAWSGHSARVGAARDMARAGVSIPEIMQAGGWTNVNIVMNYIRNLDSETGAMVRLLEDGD

With pCH110 plasmid without loxP, the activity (% white colonies) worked out at 0.
